Data from paper PMC10413660, “Structural basis of purine nucleotide inhibition of human uncoupling protein 1” (Science Advances, 2023).

B1: nanobody CA9865 (VHH)
VHH: QVQLVESGGGLVQAGGSLRLSCAPSGRTSSTYTMGWFRQAPGKEREFVAAISWTGTPYYADSVKGRFTISRDNAKNTVYLQMNSLKPEDTAVYYCAAARPGLFIFVSDYARTAKYDYWGQGTQVTVPP
notes: the nanobody part of PMb65, whose structure is deposited as PDB 8G8W; phage display library in the pMESy4 vector; also called nanobody 65
B2: human uncoupling protein 1 (UCP1) (natural protein, UniProt P25874 2-307, looked up)
chain: GGLTASDVHPTLGVQLFSAGIAACLADVITFPLDTAKVRLQVQGECPTSSVIRYKGVLGTITAVVKTEGRMKLYSGLPAGLQRQISSASLRIGLYDTVQEFLTAGKETAPSLGSKILAGLTTGGVAVFIGQPTEVVKVRLQAQSHLHGIKPRYTGTYNAYRIIATTEGLTGLWKGTTPNLMRSVIINCTELVTYDLMKEAFVKNNILADDVPCHLVSALIAGFCATAMSSPVDVVKTRFINSPPGQYKSVPNCAMKVFTNEGPTAFFKGLVPSFLRLGSWNVIMFVCFEQLKRELSKSRQTMDCAT
notes: wild-type human UCP1, UniProt P25874; the forward primer joins the His8 tag and Factor Xa site to codon 2 of UCP1, the reverse primer runs to the stop codon; also called SLC25A7; not shown: His8, N-terminal, cleaved
B3: nanobody CA9871 (VHH)
VHH: QVQLVESGGGLVQAGDSLRLSCAASGLTLKNYAMGWFRQAPGKEHEFVAVISWSGSGTSYADSVEGRFTISRDNAKNTAFLQMSSLKPEDTAVYYCAARDGGYGSRWPDEYTYWGQGTQVTVPP
notes: the nanobody part of PMb71, whose structure is deposited as PDB 8G8W; phage display library in the pMESy4 vector; also called nanobody 71

Legend:
Settings in all cases: both partners purified
[1] = molecular target: B2; assay: thermostability shift assay (cysteine-reactive probe CPM); 5 μg purified human UCP1 with an equimolar amount of nanobody, with or without 1 mM GTP, 1 hour at 4°C; 25° to 90°C at 5.6°C/min
[2] = molecular target: T1, Pro-macrobody PMb65 (nanobody CA9865 fused with maltose-binding protein via a Pro-Pro linker) (llama (Lama glama) | ); assay: cryo-EM structure; purified UCP1, PMb65 and PMb71 mixed stoichiometrically, overnight at 4°C, with 2 mM GTP and 2 mM D-maltose; 20 mM MES pH 6.0, 150 mM NaCl, 0.02% decyl maltose neopentyl glycol
T1 construct: nanobody CA9865; the structure with PMb65 is deposited as PDB 8G8W (only regions of PMb65 are modelled); Pro-Pro linker between nanobody and MBP; parts of it are removed from the deposited model; also called cytoplasmic Pro-macrobody; source: E. coli MC1061, purified (Ni-NTA, 3C cleavage, Strep-Tactin XT); not shown: MBP with deca-His tag, N-terminal, cleaved

[3] = molecular target: T2, Pro-macrobody PMb71 (nanobody CA9871 fused with maltose-binding protein via a Pro-Pro linker) (llama (Lama glama) | ); assay: as above
T2 construct: nanobody CA9871; the structure with PMb71 is deposited as PDB 8G8W; Pro-Pro linker between nanobody and MBP; also called matrix Pro-macrobody; source: E. coli MC1061, purified (Ni-NTA, 3C cleavage, Strep-Tactin XT); not shown: MBP with deca-His tag, N-terminal, cleaved

Binder	thermal stabilisation (shift of Tm) [1]	binding result [2]	binding result [3]
B1	5 °C		
B2		binds	binds
B3	0.8 °C		
